# Source: patent US20220291209, “MOLECULAR TARGET IN CANCER” (The Regents of the University of California, published 2022)
# How the values were obtained:
# MSI2 (Musashi-2) [1] = target: T1, MSI2 (Musashi-2) (UniProt Q96DH6 Q96DH6:1-328); test: TR-FRET/HTRF; 5 nM MSI2, 1.25 nM RNA; 150 mM NaCl, 25 mM HEPES pH 7.3, 1 mM DTT, 0.05% pluronic F-127, room temperature; settings: tags: His tag, LS Bio G2396; named Biotin5')
# U1A [2] = target: T2, U1A (UniProt P09012 P09012:1-282); test: TR-FRET/HTRF; 5 nM U1A, 1.25 nM RNA; 150 mM NaCl, 25 mM HEPES pH 7.3, 1 mM DTT, 0.05% pluronic F-127, room temperature; settings: tags: His tag, LS Bio G19194-10; named Biotin5')
# MSI2 (Musashi-2) [3] = target: T1, MSI2 (Musashi-2); test: competition; displaces NUMB-Biotin RNA from MSI2; titrated from 1000 nM; IC50 only in figure; settings: tags: His tag, LS Bio G2396
# U1A [4] = target: T2, U1A; test: competition; displaces Target-Biotin RNA from U1A; titrated from 1000 nM; IC50 only in figure; settings: tags: His tag, LS Bio G19194-10
# T1 sequence (Q96DH6 whole entry, one chain of several): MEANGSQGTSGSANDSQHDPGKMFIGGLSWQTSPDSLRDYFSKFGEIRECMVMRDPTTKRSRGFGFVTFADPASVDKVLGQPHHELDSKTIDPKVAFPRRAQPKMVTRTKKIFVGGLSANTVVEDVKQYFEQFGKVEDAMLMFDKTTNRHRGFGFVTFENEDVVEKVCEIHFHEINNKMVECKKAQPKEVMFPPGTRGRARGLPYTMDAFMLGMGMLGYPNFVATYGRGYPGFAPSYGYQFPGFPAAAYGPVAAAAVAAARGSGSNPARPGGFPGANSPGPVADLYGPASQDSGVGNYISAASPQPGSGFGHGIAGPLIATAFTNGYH
# T2 sequence (P09012 whole entry, one chain of several): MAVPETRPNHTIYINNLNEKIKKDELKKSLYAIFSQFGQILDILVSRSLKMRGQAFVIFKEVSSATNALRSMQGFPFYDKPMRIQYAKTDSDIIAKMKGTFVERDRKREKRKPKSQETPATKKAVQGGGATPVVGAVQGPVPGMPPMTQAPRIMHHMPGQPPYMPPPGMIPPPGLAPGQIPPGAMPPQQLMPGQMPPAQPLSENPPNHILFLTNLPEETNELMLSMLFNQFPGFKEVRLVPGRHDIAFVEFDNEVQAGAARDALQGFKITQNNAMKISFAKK
binder,measurement,setting,value
UAGGUAGUAGUUUUA (ssRNA) [NUMB-Biotin RNA probe],binding result,MSI2 (Musashi-2) [1],binds
AUUGCACUCCUUUUA (ssRNA) [U1A Target-Biotin RNA probe],binding result,U1A [2],binds
UAGGUAGUAGUUUUA (ssRNA) [NUMB-CTRL RNA (unlabelled)],binding result,MSI2 (Musashi-2) [3],binds
AUUGCACUCCUUUUA (ssRNA) [U1A Target-CTRL RNA (unlabelled)],binding result,U1A [4],binds
